Data reported in US20240270846A1 (published 2024).
Numbering of substitutions follows the chain as printed. Numbers in names are those of the source.

B1: GLS3000 N30T (Kabat) L chain altered form, one-arm antibody with CE115HA000 (antibody, human IgG1, kappa, L234A L235A, N297A, name in Kabat numbering)
heavy: QVQLVESGGGVVQPGRSLRLSCAASGFTFSNAWMHWVRQAPGKGLEWVAQIKAKSNNYATYYAESVKGRFTISRDDSKNSLYLQMNSLKTEDTAVYYCRYVHYGAYYGVDAWGQGTTVTVSSASTKGPSVFPLAPSSKSTSGGTAALGCLVKDYFPEPVTVSWNSGALTSGVHTFPAVLQSSGLYSLSSVVTVPSSSLGTQTYICNVNHKPSNTKVDKKVEPKSCDKTHTCPPCPAPEAAGGPSVFLFPPKPKDTLMISRTPEVTCVVVDVSHEDPEVKFNWYVDGVEVHNAKTKPREEQYASTYRVVSVLTVLHQDWLNGKEYKCKVSNKALPAPIEKTISKAKGQPREPQVYTLPPSRCELTKNQVSLSCAVKGFYPSDIAVEWESNGQPENNYKTTPPVLDSDGSFFLVSKLTVDKSRWQQGNVFSCSVMHEALHNHYTQKSLSLSPDYKDDDDK
chain: EPKSSDKTHTCPPCPAPELLGGPSVFLFPPKPKDTLMISRTPEVTCVVVDVSHEDPEVKFNWYVDGVEVHNAKTKPREEQYNSTYRVVSVLTVLHQDWLNGKEYKCKVSNKALPAPIEKTISKAKGQPREPQVCTLPPSRDELTKNQVSLWCLVKGFYPSDIAVEWESNGQPENNYKTTPPVLDSDGSFFLYSKLTVDKSRWQQGNVFSCSVMHEALHNRYTQKSLSLSP
light: DIVMTQSPLSLPVTPGEPASISCRSSQSLVHSNRTTYLHWYQQKPGQAPRLLIYKVSNRFSGVPDRFSGSGSGTDFTLKISRVEAEDVGVYYCGQGTQVPYTFGQGTKLEIKRTVAAPSVFIFPPSDEQLKSGTASVVCLLNNFYPREAKVQWKVDNALQSGNSQESVTEQDSKDSTYSLSSTLTLSKADYEKHKVYACEVTHQGLSSPVTKSFNRGEC
notes: one-arm antibody
B2: GLS3000 R29I (Kabat) L chain altered form, one-arm antibody with CE115HA000 (antibody, human IgG1, kappa, L234A L235A, N297A, name in Kabat numbering)
heavy: B1 heavy
chain: B1 chain
light: B1 light with R34I, T35N
notes: one-arm antibody
B3: GLS3000 R29P (Kabat) L chain altered form, one-arm antibody with CE115HA000 (antibody, human IgG1, kappa, L234A L235A, N297A, name in Kabat numbering)
heavy: B1 heavy
chain: B1 chain
light: B1 light with R34P, T35N
notes: one-arm antibody
B4: GLS3000 R29L (Kabat) L chain altered form, one-arm antibody with CE115HA000 (antibody, human IgG1, kappa, L234A L235A, N297A, name in Kabat numbering)
heavy: B1 heavy
chain: B1 chain
light: B1 light with R34L, T35N
notes: one-arm antibody
B5: GLS3000 N30W (Kabat) L chain altered form, one-arm antibody with CE115HA000 (antibody, human IgG1, kappa, L234A L235A, N297A, name in Kabat numbering)
heavy: B1 heavy
chain: B1 chain
light: B1 light with T35W
notes: one-arm antibody
B6: GLS3000 R24P (Kabat) L chain altered form, one-arm antibody with CE115HA000 (antibody, human IgG1, kappa, L234A L235A, N297A, name in Kabat numbering)
heavy: B1 heavy
chain: B1 chain
light: B1 light with R24P, T35N
notes: one-arm antibody
B7: GLS3000 S25D (Kabat) L chain altered form, one-arm antibody with CE115HA000 (antibody, human IgG1, kappa, L234A L235A, N297A, name in Kabat numbering)
heavy: B1 heavy
chain: B1 chain
light: B1 light with S25D, T35N
notes: one-arm antibody
B8: GLS3000 R29T (Kabat) L chain altered form, one-arm antibody with CE115HA000 (antibody, human IgG1, kappa, L234A L235A, N297A, name in Kabat numbering)
heavy: B1 heavy
chain: B1 chain
light: B1 light with R34T, T35N
notes: one-arm antibody
B9: GLS3000 R29Y (Kabat) L chain altered form, one-arm antibody with CE115HA000 (antibody, human IgG1, kappa, L234A L235A, N297A, name in Kabat numbering)
heavy: B1 heavy
chain: B1 chain
light: B1 light with R34Y, T35N
notes: one-arm antibody
B10: GLS3000 R24Y (Kabat) L chain altered form, one-arm antibody with CE115HA000 (antibody, human IgG1, kappa, L234A L235A, N297A, name in Kabat numbering)
heavy: B1 heavy
chain: B1 chain
light: B1 light with R24Y, T35N
notes: one-arm antibody
B11: GLS3000 Q27R (Kabat) L chain altered form, one-arm antibody with CE115HA000 (antibody, human IgG1, kappa, L234A L235A, N297A, name in Kabat numbering)
heavy: B1 heavy
chain: B1 chain
light: B1 light with Q27R, T35N
notes: one-arm antibody
B12: GLS3000 Q27L (Kabat) L chain altered form, one-arm antibody with CE115HA000 (antibody, human IgG1, kappa, L234A L235A, N297A, name in Kabat numbering)
heavy: B1 heavy
chain: B1 chain
light: B1 light with Q27L, T35N
notes: one-arm antibody
B13: GLS3000 R54A (Kabat) L chain altered form, one-arm antibody with CE115HA000 (antibody, human IgG1, kappa, L234A L235A, N297A, name in Kabat numbering)
heavy: B1 heavy
chain: B1 chain
light: B1 light with T35N, R59A
notes: one-arm antibody
B14: GLS3000 Q27P (Kabat) L chain altered form, one-arm antibody with CE115HA000 (antibody, human IgG1, kappa, L234A L235A, N297A, name in Kabat numbering)
heavy: B1 heavy
chain: B1 chain
light: B1 light with Q27P, T35N
notes: one-arm antibody
B15: GLS3000 N53A (Kabat) L chain altered form, one-arm antibody with CE115HA000 (antibody, human IgG1, kappa, L234A L235A, N297A, name in Kabat numbering)
heavy: B1 heavy
chain: B1 chain
light: B1 light with T35N, N58A
notes: one-arm antibody
B16: GLS3000 Q27D (Kabat) L chain altered form, one-arm antibody with CE115HA000 (antibody, human IgG1, kappa, L234A L235A, N297A, name in Kabat numbering)
heavy: B1 heavy
chain: B1 chain
light: B1 light with Q27D, T35N
notes: one-arm antibody
B17: GLS3000 R24Q (Kabat) L chain altered form, one-arm antibody with CE115HA000 (antibody, human IgG1, kappa, L234A L235A, N297A, name in Kabat numbering)
heavy: B1 heavy
chain: B1 chain
light: B1 light with R24Q, T35N
notes: one-arm antibody
B18: GLS3000 R24D (Kabat) L chain altered form, one-arm antibody with CE115HA000 (antibody, human IgG1, kappa, L234A L235A, N297A, name in Kabat numbering)
heavy: B1 heavy
chain: B1 chain
light: B1 light with R24D, T35N
notes: one-arm antibody
B19: GLS3000 R29A (Kabat) L chain altered form, one-arm antibody with CE115HA000 (antibody, human IgG1, kappa, L234A L235A, N297A, name in Kabat numbering)
heavy: B1 heavy
chain: B1 chain
light: B1 light with R34A, T35N
notes: one-arm antibody
B20: GLS3000 N30Y (Kabat) L chain altered form, one-arm antibody with CE115HA000 (antibody, human IgG1, kappa, L234A L235A, N297A, name in Kabat numbering)
heavy: B1 heavy
chain: B1 chain
light: B1 light with T35Y
notes: one-arm antibody
B21: GLS3000 R24E (Kabat) L chain altered form, one-arm antibody with CE115HA000 (antibody, human IgG1, kappa, L234A L235A, N297A, name in Kabat numbering)
heavy: B1 heavy
chain: B1 chain
light: B1 light with R24E, T35N
notes: one-arm antibody
B22: GLS3000 R24S (Kabat) L chain altered form, one-arm antibody with CE115HA000 (antibody, human IgG1, kappa, L234A L235A, N297A, name in Kabat numbering)
heavy: B1 heavy
chain: B1 chain
light: B1 light with R24S, T35N
notes: one-arm antibody
B23: GLS3000 R29D (Kabat) L chain altered form, one-arm antibody with CE115HA000 (antibody, human IgG1, kappa, L234A L235A, N297A, name in Kabat numbering)
heavy: B1 heavy
chain: B1 chain
light: B1 light with R34D, T35N
notes: one-arm antibody
B24: GLS3000 R24A (Kabat) L chain altered form, one-arm antibody with CE115HA000 (antibody, human IgG1, kappa, L234A L235A, N297A, name in Kabat numbering)
heavy: B1 heavy
chain: B1 chain
light: B1 light with R24A, T35N
notes: one-arm antibody
B25: GLS3000 R24G (Kabat) L chain altered form, one-arm antibody with CE115HA000 (antibody, human IgG1, kappa, L234A L235A, N297A, name in Kabat numbering)
heavy: B1 heavy
chain: B1 chain
light: B1 light with R24G, T35N
notes: one-arm antibody
B26: GLS3000 S25A (Kabat) L chain altered form, one-arm antibody with CE115HA000 (antibody, human IgG1, kappa, L234A L235A, N297A, name in Kabat numbering)
heavy: B1 heavy
chain: B1 chain
light: B1 light with S25A, T35N
notes: one-arm antibody
B27: GLS3000 R29S (Kabat) L chain altered form, one-arm antibody with CE115HA000 (antibody, human IgG1, kappa, L234A L235A, N297A, name in Kabat numbering)
heavy: B1 heavy
chain: B1 chain
light: B1 light with R34S, T35N
notes: one-arm antibody
B28: GLS3000 R29V (Kabat) L chain altered form, one-arm antibody with CE115HA000 (antibody, human IgG1, kappa, L234A L235A, N297A, name in Kabat numbering)
heavy: B1 heavy
chain: B1 chain
light: B1 light with R34V, T35N
notes: one-arm antibody
B29: GLS3000 N30V (Kabat) L chain altered form, one-arm antibody with CE115HA000 (antibody, human IgG1, kappa, L234A L235A, N297A, name in Kabat numbering)
heavy: B1 heavy
chain: B1 chain
light: B1 light with T35V
notes: one-arm antibody
B30: GLS3000 R29G (Kabat) L chain altered form, one-arm antibody with CE115HA000 (antibody, human IgG1, kappa, L234A L235A, N297A, name in Kabat numbering)
heavy: B1 heavy
chain: B1 chain
light: B1 light with R34G, T35N
notes: one-arm antibody
B31: GLS3000 Q27E (Kabat) L chain altered form, one-arm antibody with CE115HA000 (antibody, human IgG1, kappa, L234A L235A, N297A, name in Kabat numbering)
heavy: B1 heavy
chain: B1 chain
light: B1 light with Q27E, T35N
notes: one-arm antibody
B32: GLS3000 R24T (Kabat) L chain altered form, one-arm antibody with CE115HA000 (antibody, human IgG1, kappa, L234A L235A, N297A, name in Kabat numbering)
heavy: B1 heavy
chain: B1 chain
light: B1 light with R24T, T35N
notes: one-arm antibody

The binders below were run against T1, CD3 epsilon homodimer protein (UniProt P07766 23-126) (assay: SPR Biacore T200, CD3 epsilon homodimer immobilized; vs unaltered GLS3000;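 also: antibody variants flowed as analyte over CD3 epsilon homodimer amine-coupled to a CM4 chip, at 25 °C in HBS-EP+ running buffer, fitted with Biacore T200 Evaluation Software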).
T1 construct: construct not described; homodimer as printed; also called CD3 (CD3 epsilon)
T1 sequence (P07766 23-126): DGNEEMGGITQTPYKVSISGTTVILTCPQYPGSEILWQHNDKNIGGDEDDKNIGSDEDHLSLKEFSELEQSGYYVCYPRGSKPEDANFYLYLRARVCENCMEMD
For B1, the “KD ratio to GLS3000 (Affinity up)” value was 12.7. B2 was tested, and the “KD ratio to GLS3000 (Affinity up)” value was 1.6. In the case of B3, the “KD ratio to GLS3000 (Affinity up)” value is reported as 14. For B4, the “KD ratio to GLS3000 (Affinity up)” value was 0.9. For B5, the “KD ratio to GLS3000 (Affinity up)” value was 0.97. With B6 the “KD ratio to GLS3000 (Affinity up)” value was 0.34. With B7 the “KD ratio to GLS3000 (Affinity up)” value was 8.86. With B8 the “KD ratio to GLS3000 (Affinity up)” value was 1.02. B9 was tested, and the “KD ratio to GLS3000 (Affinity up)” value was 1.08. For B10, the “KD ratio to GLS3000 (Affinity up)” value was 0.94. With B11 the “KD ratio to GLS3000 (Affinity up)” value was 1.06. In the case of B12, the “KD ratio to GLS3000 (Affinity up)” value is reported as 0.86. In the case of B13, the “KD ratio to GLS3000 (Affinity up)” value is reported as 0.85. B14 was tested, and the “KD ratio to GLS3000 (Affinity up)” value was 2.16. For B15, the “KD ratio to GLS3000 (Affinity up)” value was 0.82. In the case of B16, the “KD ratio to GLS3000 (Affinity up)” value is reported as 0.89. For B17, the “KD ratio to GLS3000 (Affinity up)” value was 0.87. In the case of B18, the “KD ratio to GLS3000 (Affinity up)” value is reported as 0.83. B19 was tested, and the “KD ratio to GLS3000 (Affinity up)” value was 1.15. With B20 the “KD ratio to GLS3000 (Affinity up)” value was 1.03. In the case of B21, the “KD ratio to GLS3000 (Affinity up)” value is reported as 0.89. In the case of B22, the “KD ratio to GLS3000 (Affinity up)” value is reported as 0.97. B23 was tested, and the “KD ratio to GLS3000 (Affinity up)” value was 1.58. B24 was tested, and the “KD ratio to GLS3000 (Affinity up)” value was 1. For B25, the “KD ratio to GLS3000 (Affinity up)” value was 0.92. In the case of B26, the “KD ratio to GLS3000 (Affinity up)” value is reported as 0.73. In the case of B27, the “KD ratio to GLS3000 (Affinity up)” value is reported as 1.05. B28 was tested, and the “KD ratio to GLS3000 (Affinity up)” value was 2.25. In the case of B29, the “KD ratio to GLS3000 (Affinity up)” value is reported as 2.62. With B30 the “KD ratio to GLS3000 (Affinity up)” value was 0.62. For B31, the “KD ratio to GLS3000 (Affinity up)” value was 0.99. In the case of B32, the “KD ratio to GLS3000 (Affinity up)” value is reported as 1.03.
